Measured values from patent US20240058465A1 (SUTRO BIOPHARMA, published 2024).
Numbering of substitutions follows the chain as printed. Blank lines part the entries; values can stand above or below the binder they belong to.

Key:
[1] = molecular target: T1, human ROR1 (hROR1) expressed on cells (human, UniProt Q01973 30-937); assay: flow cytometry, HCT116-hROR1 cells
T1 construct: Mino cells are the target positive cells of the killing assay; also called receptor tyrosine kinase like orphan receptor 1; HCT 116-hROR1

[2] = molecular target: T2, human ROR1-ECD (human, UniProt Q01973 30-406); assay: SPR (Biacore), antibody captured by anti-Fc, human ROR1-ECD analyte
T2 construct: Bought protein; also called hROR1; ROR1-extracellular domain
Description: Anti-Fc polyclonal antibodies were immobilized onto a CMS chip (GE Life Sciences) using amine coupling chemistry (from Amine Coupling Kit, GE Life Sciences). The immobilization steps were carried out at a flow rate of 25 μL/min in 1×HBS-EP+buffer (GE Life Sciences; 10× Stock diluted before use). The sensor surfaces were activated for 7 min with a mixture of NHS (0.05 M) and EDC (0.2 M). The Anti-Fc antibodies were injected over all 4 flow cells at a concentration of 25 ug/ml in 10 mM sodium acetate, pH 4.5, for 7 min. Ethanolamine (1 M, pH 8.5) was injected for 7 min to block any remaining activated groups.
Off-rate and kinetic binding experiments were performed at 25° C. using 1×HBS-EP+buffer. Test and control antibodies were injected over the anti-Fc surface at concentrations of 5-10 μg/mL for 12 seconds at a flow rate of 10 μL/min on flow cells 2, 3 and 4, followed by a buffer wash for 30 seconds at the same flow rate. […] After capturing ligand (antibody) on the anti-Fc surface, the analyte (hROR1, Fz or Kr domains, Acro Biosystems, Delaware) was bound for 180 seconds, followed by a 600 second dissociation phase at a flow rate of 50 μL/min. Between each ligand capture and analyte binding cycle, regeneration was carried out using 2 injections of 10 mM Glycine pH 2.0 for 30 seconds at 30 μL/min, followed by a 30 second buffer wash step.

B1: SRP2188-A06 (antibody, IgG1, V domains shown)
VH: EVQLVESGGGLVQPGGSLRLSCAASGFNIKSYDIHWVRQAPGKGLEWVGWINPDDGDTYHADSVKGRFTISADTSKNTAYLQMNSLRAEDTAVYYCARDYGVFDYWGQGTLVTVSS
VL: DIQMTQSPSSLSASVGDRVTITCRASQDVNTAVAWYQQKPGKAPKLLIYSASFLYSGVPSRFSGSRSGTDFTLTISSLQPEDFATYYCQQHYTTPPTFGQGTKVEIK
notes: IgG1 with trastuzumab LC; HIS- and FLAG-tagged; cell-free expressed
Bmax (MFI) [1]: 8950 MFI
Kd [1]: 0.02 nM

B2: SRP2188-E08 (antibody, IgG1, V domains shown)
VH: B1 VH with K30I, S31D, Y32F, W50G, N52D, D54Q, D57S, Y59D, H60L, F68L
VL: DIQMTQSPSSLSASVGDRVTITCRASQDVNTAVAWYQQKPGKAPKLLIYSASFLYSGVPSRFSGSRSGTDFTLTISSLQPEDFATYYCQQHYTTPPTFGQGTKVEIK
notes: as for B1
Bmax (MFI) [1]: 9330 MFI
Kd [1]: 0.03 nM

B3: SRP2188-A11 (antibody, IgG1, V domains shown)
VH: B1 VH with K30S, S31D, G49S, W50L, N52D, D54K, D57A, Y59D, H60S, E89G
VL: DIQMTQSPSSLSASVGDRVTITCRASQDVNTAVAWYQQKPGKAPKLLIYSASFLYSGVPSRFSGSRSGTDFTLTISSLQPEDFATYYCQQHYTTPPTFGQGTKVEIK
notes: as for B1
Kd [2]: 0.354 nM
koff [2]: 0.000379 s⁻¹
kon [2]: 1.07e+06 M⁻¹ s⁻¹
Bmax (MFI) [1]: 8340 MFI
Kd [1]: 0.06 nM

B6: SRP2188-E06 (antibody, IgG1, V domains shown)
VH: B1 VH with K30G, S31D, W50G, N52D, D54E, D57A, Y59D, H60I, N84D
VL: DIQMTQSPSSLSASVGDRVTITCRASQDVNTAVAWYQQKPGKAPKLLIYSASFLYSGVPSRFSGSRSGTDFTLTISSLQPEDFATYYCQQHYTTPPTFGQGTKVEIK
notes: as for B1
Kd [2]: 0.438 nM
koff [2]: 0.000346 s⁻¹
kon [2]: 790000 M⁻¹ s⁻¹
Bmax (MFI) [1]: 9970 MFI
Kd [1]: 0.04 nM

B7: SRP2188-C08 (antibody, IgG1, V domains shown)
VH: B1 VH with Y32H
VL: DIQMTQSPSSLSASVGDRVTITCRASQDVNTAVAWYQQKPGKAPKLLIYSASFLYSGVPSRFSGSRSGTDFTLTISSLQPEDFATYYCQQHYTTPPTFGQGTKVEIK
notes: as for B1
Bmax (MFI) [1]: 8570 MFI
Kd [1]: 0.03 nM

B9: SRP2188-C06 (antibody, IgG1, V domains shown)
VH: B1 VH with K30N, H60L
VL: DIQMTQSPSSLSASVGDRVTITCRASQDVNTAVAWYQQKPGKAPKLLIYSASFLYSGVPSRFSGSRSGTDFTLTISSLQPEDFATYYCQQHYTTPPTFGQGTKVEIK
notes: as for B1
Bmax (MFI) [1]: 9580 MFI
Kd [1]: 0.03 nM

B10: SRP2188-D05 (antibody, IgG1, V domains shown)
VH: B1 VH with K30S, S31E, W50G, N52D, D54H, D57W, Y59D, F103Y
VL: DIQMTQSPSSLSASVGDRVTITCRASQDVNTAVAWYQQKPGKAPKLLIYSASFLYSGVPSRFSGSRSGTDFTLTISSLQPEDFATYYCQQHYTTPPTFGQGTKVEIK
notes: as for B1
Kd [2]: 0.48 nM
koff [2]: 0.000359 s⁻¹
kon [2]: 747000 M⁻¹ s⁻¹
Bmax (MFI) [1]: 9840 MFI
Kd [1]: 0.04 nM

B11: SRP2188-D08 (antibody, IgG1, V domains shown)
VH: B1 VH with K30R, S31D, G49V, W50G, N52D, D57A, Y59D, H60E
VL: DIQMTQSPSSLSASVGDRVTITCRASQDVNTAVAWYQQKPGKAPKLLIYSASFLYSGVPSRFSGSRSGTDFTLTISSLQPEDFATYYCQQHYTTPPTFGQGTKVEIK
notes: as for B1
Kd [2]: 0.381 nM
koff [2]: 0.000268 s⁻¹
kon [2]: 703000 M⁻¹ s⁻¹
Bmax (MFI) [1]: 9600 MFI
Kd [1]: 0.05 nM

B12: SRP2188-C01 (antibody, IgG1, V domains shown)
VH: B1 VH with K30I, G49S, W50L, N52D, D54H, D57S, Y59D, H60S
VL: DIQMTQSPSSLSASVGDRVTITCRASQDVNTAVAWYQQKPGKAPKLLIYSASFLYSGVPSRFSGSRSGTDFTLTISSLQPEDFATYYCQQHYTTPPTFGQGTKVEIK
notes: as for B1
Bmax (MFI) [1]: 10100 MFI
Kd [1]: 0.38 nM

B14: SRP2188-E07 (antibody, IgG1, V domains shown)
VH: B1 VH with K30G, S31D, D33G, W50G, N52D, D54E, D57F, Y59V, F103Y
VL: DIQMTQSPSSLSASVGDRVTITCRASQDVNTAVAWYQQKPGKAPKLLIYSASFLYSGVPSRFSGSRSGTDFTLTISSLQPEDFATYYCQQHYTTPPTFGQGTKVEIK
notes: as for B1
Bmax (MFI) [1]: 7600 MFI
Kd [1]: 0.02 nM

B16: SRP2188-B11 (antibody, IgG1, V domains shown)
VH: B1 VH with K30N, S31R, Y59F, H60L, N77S
VL: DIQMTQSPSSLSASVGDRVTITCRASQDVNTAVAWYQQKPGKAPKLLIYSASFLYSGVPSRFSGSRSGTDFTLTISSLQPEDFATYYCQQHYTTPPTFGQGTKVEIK
notes: as for B1
Bmax (MFI) [1]: 8730 MFI
Kd [1]: 0.04 nM

Other lines, results leading:

Kd [2]: 0.546 nM
koff [2]: 0.000316 s⁻¹
kon [2]: 578000 M⁻¹ s⁻¹
Bmax (MFI) [1]: 8660 MFI
Kd [1]: 0.02 nM
B4: SRP2188-F01 (antibody, IgG1, V domains shown)
VH: B1 VH with K30R, S31Y, W50L, N52D, D57W, Y59V, H60S
VL: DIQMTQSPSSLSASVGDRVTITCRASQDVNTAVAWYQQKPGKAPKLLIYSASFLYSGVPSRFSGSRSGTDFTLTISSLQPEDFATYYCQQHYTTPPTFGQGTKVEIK
notes: as for B1

Kd [2]: 0.406 nM
koff [2]: 0.000259 s⁻¹
kon [2]: 639000 M⁻¹ s⁻¹
Bmax (MFI) [1]: 8990 MFI
Kd [1]: 0.02 nM
B5: SRP2188-G04 (antibody, IgG1, V domains shown)
VH: B1 VH with K30F, S31D, W50G, N52D, D54R, D57S, Y59D, F103Y
VL: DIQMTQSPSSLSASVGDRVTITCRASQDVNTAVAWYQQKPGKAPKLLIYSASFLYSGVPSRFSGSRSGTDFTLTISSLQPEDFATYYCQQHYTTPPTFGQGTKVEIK
notes: as for B1

Bmax (MFI) [1]: 9250 MFI
Kd [1]: 0.03 nM
B8: SRP2188-E11 (antibody, IgG1, V domains shown)
VH: B1 VH with K30S, S31H, G49S, W50G, N52D, D54G, D57A, Y59D
VL: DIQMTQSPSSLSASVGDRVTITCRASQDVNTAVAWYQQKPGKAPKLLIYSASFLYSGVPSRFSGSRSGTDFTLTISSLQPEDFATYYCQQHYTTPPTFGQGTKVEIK
notes: as for B1

Bmax (MFI) [1]: 9870 MFI
Kd [1]: 0.03 nM
B13: SRP2188-F07 (antibody, IgG1, V domains shown)
VH: B1 VH with K30S, S31D, W50G, N52D, D54N, D57S, Y59D, T78M
VL: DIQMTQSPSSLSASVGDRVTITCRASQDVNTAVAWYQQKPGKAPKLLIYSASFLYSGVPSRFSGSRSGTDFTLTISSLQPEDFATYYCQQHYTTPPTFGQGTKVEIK
notes: as for B1

Kd [2]: 0.587 nM
koff [2]: 0.00051 s⁻¹
kon [2]: 870000 M⁻¹ s⁻¹
Bmax (MFI) [1]: 9620 MFI
Kd [1]: 0.04 nM
B15: SRP2188-F05 (antibody, IgG1, V domains shown)
VH: B1 VH with K30S, S31D, W50G, N52D, D54R, D57A, Y59D, H60S
VL: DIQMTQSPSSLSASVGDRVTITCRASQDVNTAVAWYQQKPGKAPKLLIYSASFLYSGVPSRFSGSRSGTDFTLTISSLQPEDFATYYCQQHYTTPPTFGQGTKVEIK
notes: as for B1
